# Measurements reported in US20260201033A1 (LTZ THERAPEUTICS, published 2026).
# T1: CD79b on Ramos cells and on endogenous B cells of human PBMCs (human, UniProt P40259 29-229)
# T1 sequence (looked up): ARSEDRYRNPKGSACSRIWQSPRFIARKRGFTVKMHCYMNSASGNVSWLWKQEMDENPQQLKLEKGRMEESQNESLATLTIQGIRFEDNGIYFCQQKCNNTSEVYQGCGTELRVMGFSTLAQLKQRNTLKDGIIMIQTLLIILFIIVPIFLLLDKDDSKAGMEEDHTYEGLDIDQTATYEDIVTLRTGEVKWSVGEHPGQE
# T2: Human CLEC5A His Tag protein (ACROBiosystems, Cat #: CLA-H5243) (human, UniProt Q9NY25 28-188, limits assumed)
# T2 construct: Bought protein with a His tag; also called recombinant human CLEC5A protein
# T2 sequence: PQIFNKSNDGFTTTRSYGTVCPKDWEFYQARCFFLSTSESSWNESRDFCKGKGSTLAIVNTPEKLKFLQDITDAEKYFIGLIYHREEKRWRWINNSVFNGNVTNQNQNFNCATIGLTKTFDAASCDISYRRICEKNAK
# B1: CD79b/5C7 (2+1 A) Fc-optimized (bispecific antibody, human IgG1, kappa)
# heavy 1: EQQLVETGGGLIQPGGSLRLSCAASGFTINIDYWISWVRQAPGKGLEWIGIIDPGDGTTYFAIWVSGRFTISFDNSKNTVYLQMNSLRAEDTAVYFCVREFSASAYQYDLWGPGTLVTVSSASTKGPSVFPLAPSSKSTSGGTAALGCLVKDYFPEPVTVSWNSGALTSGVHTFPAVLQSSGLYSLSSVVTVPSSSLGTQTYICNVNHKPSNTKVDKKVEPKSCDGGGGSGGGGSGGGGSEQQLVETGGGLIQPGGSLRLSCAASGFTINIDYWISWVRQAPGKGLEWIGIIDPGDGTTYFAIWVSGRFTISFDNSKNTVYLQMNSLRAEDTAVYFCVREFSASAYQYDLWGPGTLVTVSSASTKGPSVFPLAPSSKSTSGGTAALGCLVKDYFPEPVTVSWNSGALTSGVHTFPAVLQSSGLYSLSSVVTVPSSSLGTQTYICNVNHKPSNTKVDKKVEPKSCDKTHTCPPCPAPELLAGPSVFLFPPKPKDTLMISRTPEVTCVVVDVSHEDPEVKFNWYVDGVEVHNAKTKPREEQYNSTYRVVSVLTVLHQDWLNGKEYKCKVSNKALPLPEEKTISKAKGQPREPQVYTLPPSRDELTKNQVSLSCAVKGFYPSDIAVEWESNGQPENNYKTTPPVLDSDGSFFLVSKLTVDKSRWQQGNVFSCSVMHEALHNHYTQKSLSLSPGK
# heavy 2: DIQMTQSPSSLSASVGDRVTITCQASESVDRNNRLAWFQQKPGKPPKLLIYTTSTLASGVPSRFSGSGSGTDFTLTISSLQPEDVATYYCAGYRGAHTDGDAFGGGTKVEIKGGGGSGGGGSGGGGSGGGGSEQQLVESGGGLVKPGGSLRLSCAASGFSFSRSSYMCWVRQAPGKGLEWIGCLSVGDGHTYYASWAKGRFTISKDSAKNSVYLQMNSLRAEDTAVYFCARAPSYSGDGGHGYDLWGPGTLVTVSSDKTHTCPPCPAPELLAGPSVFLFPPKPKDTLMISRTPEVTCVVVDVSHEDPEVKFNWYVDGVEVHNAKTKPREEQYNSTYRVVSVLTVLHQDWLNGKEYKCKVSNKALPLPEEKTISKAKGQPREPQVYTLPPSRDELTKNQVSLWCLVKGFYPSDIAVEWESNGQPENNYKTTPPVLDSDGSFFLYSKLTVDKSRWQQGNVFSCSVMHEALHNHYTQKSLSLSPGK
# light: ELVMTQSPATLSVSPGERATLSCRASEDIENYLAWYQQKPGQPPRLLIYRASTLSSGVPARFSGSGSGTEFTLTISSLQSEDFAVYYCQQGYRNSNVDNPFGGGTKVEIKRTVAAPSVFIFPPSDEQLKSGTASVVCLLNNFYPREAKVQWKVDNALQSGNSQESVTEQDSKDSTYSLSSTLTLSKADYEKHKVYACEVTHQGLSSPVTKSFNRGEC
# B2: CD79b/5C7 (1+1 A) Fc-optimized (bispecific antibody, human IgG1, kappa)
# heavy 1: EQQLVETGGGLIQPGGSLRLSCAASGFTINIDYWISWVRQAPGKGLEWIGIIDPGDGTTYFAIWVSGRFTISFDNSKNTVYLQMNSLRAEDTAVYFCVREFSASAYQYDLWGPGTLVTVSSASTKGPSVFPLAPSSKSTSGGTAALGCLVKDYFPEPVTVSWNSGALTSGVHTFPAVLQSSGLYSLSSVVTVPSSSLGTQTYICNVNHKPSNTKVDKKVEPKSCDKTHTCPPCPAPELLAGPSVFLFPPKPKDTLMISRTPEVTCVVVDVSHEDPEVKFNWYVDGVEVHNAKTKPREEQYNSTYRVVSVLTVLHQDWLNGKEYKCKVSNKALPLPEEKTISKAKGQPREPQVYTLPPSRDELTKNQVSLSCAVKGFYPSDIAVEWESNGQPENNYKTTPPVLDSDGSFFLVSKLTVDKSRWQQGNVFSCSVMHEALHNHYTQKSLSLSPGK
# heavy 2: EQQLVESGGGLVKPGGSLRLSCAASGFSFSRSSYMCWVRQAPGKGLEWIGCLSVGDGHTYYASWAKGRFTISKDSAKNSVYLQMNSLRAEDTAVYFCARAPSYSGDGGHGYDLWGPGTLVTVSSASTKGPSVFPLAPSSKSTSGGTAALGCLVKDYFPEPVTVSWNSGALTSGVHTFPAVLQSSGLYSLSSVVTVPSSSLGTQTYICNVNHKPSNTKVDKKVEPKSCDKTHTCPPCPAPELLAGPSVFLFPPKPKDTLMISRTPEVTCVVVDVSHEDPEVKFNWYVDGVEVHNAKTKPREEQYNSTYRVVSVLTVLHQDWLNGKEYKCKVSNKALPLPEEKTISKAKGQPREPQVYTLPPSRDELTKNQVSLWCLVKGFYPSDIAVEWESNGQPENNYKTTPPVLDSDGSFFLYSKLTVDKSRWQQGNVFSCSVMHEALHNHYTQKSLSLSPGK
# light 1: B1 light
# light 2: DIQMTQSPSSLSASVGDRVTITCQASESVDRNNRLAWFQQKPGKPPKLLIYTTSTLASGVPSRFSGSGSGTDFTLTISSLQPEDVATYYCAGYRGAHTDGDAFGGGTKVEIKRTVAAPSVFIFPPSDEQLKSGTASVVCLLNNFYPREAKVQWKVDNALQSGNSQESVTEQDSKDSTYSLSSTLTLSKADYEKHKVYACEVTHQGLSSPVTKSFNRGEC
# B3: h6A5, humanized anti-CLEC5A antibody (antibody, V domains shown)
# VH: EQQLVESGGGLVQPGGSLRLSCSASGFSFSSSYYMCWVRQAPGKGLELIACIYSSSGRTWYATWVNGRFTISRDTSKNTVYLQMNSLRAEDTAVYFCARSYAGYGGYGYAYFNLWGPGTLVTVSS
# VL: EIVMTQSPATLSVSPGERATLSCQASEDIYSSLAWYQQKPGQRPRLLIYDASTLASGVPARFSGSGSGTEYTLTISSLQSEDFAVYYCQNYYDSTGSGYGAAFGGGTKVEIK
# notes: also called humanized 6A5
# B4: h3A7, humanized anti-CLEC5A antibody (antibody, V domains shown)
# VH: EQQLLESGGGLVQPGGSLRLSCAASGFSFSGMYWICWVRQAPGKGLEWIACIYTGSSTTGYASWAKGRFTISKDSSKNTVYLQMNSLRAEDTAVYFCASPYGDSSHYRGLNLWGPGTLVTVSS
# VL: DVQMTQSPSSLSASVGDRVTITCQASQRINNYLSWFQQKPGKPPKLLIYGAATLASGVPSRFSGSGSGTDYTLTISSLQPEDVATYYCQCTYGIPSSNYGFGGGTKVEIK
# notes: also called humanized 3A7
# B5: h13E6, humanized anti-CLEC5A antibody (antibody, V domains shown)
# VH: EQQLLESGGGLVQPGGSLRLSCAASGFSFSSSYWLCWVRQAPGKGLEWIACIYGGSSRGTYYASWAKGRFTISKDSSKNTVYLQMNSLRAEDTAVYFCASHTYTYPRFSPYFNLWGPGTLVTVSS
# VL: EFVMTQSPATLSVSPGERATLSCQASEDIESSLAWYQQKPGQPPRLLIYDASDLESGVPARFSGSGSGTEYTLTISSLQSEDFAVYFCQSAYYTGSADNTFGGGTKVEIK
# notes: also called humanized 13E6
# B6: h7G10, humanized anti-CLEC5A antibody (antibody, V domains shown)
# VH: EQQLVESGGGVVQPGRSLRLSCAASGFSFSSGYDMCWVRQAPGKGLEWIACIYGGRSDNVYYARWAKGRFTISKDSSTNTVFLQMNSLRAEDTAVYFCARDYLYRGYIGGGYGRSNLWGPGTLVTVSS
# VL: DVQMTQSPSSVSASVGDRVTITCRASEDIENCLAWYQQKPGKPPKLLIYQASKLPSGVPSRFSGSGSGTDYTLTISSLQPEDFATYYCQNPDYMRNTDNLFGGGTKVEIK
# notes: also called humanized 7G10
# B7: h5C7, humanized anti-CLEC5A antibody (antibody, V domains shown)
# VH: EQQLVESGGGLVKPGGSLRLSCAASGFSFSRSSYMCWVRQAPGKCLEWIGCLSVGDGHTYYASWAKGRFTISKDSAKNSVYLQMNSLRAEDTAVYFCARAPSYSGDGGHGYDLWGPGTLVTVSS
# VL: DIQMTQSPSSLSASVGDRVTITCQASESVDRNNRLAWFQQKPGKPPKLLIYTTSTLASGVPSRFSGSGSGTDFTLTISSLQPEDVATYYCAGYRGAHTDGDAFGCGTKVEIK
# notes: also called humanized 5C7
# B8: CD79b/5C7 (2+2 A) Fc-silenced (bispecific antibody, human IgG1, kappa, L234A L235A)
# heavy: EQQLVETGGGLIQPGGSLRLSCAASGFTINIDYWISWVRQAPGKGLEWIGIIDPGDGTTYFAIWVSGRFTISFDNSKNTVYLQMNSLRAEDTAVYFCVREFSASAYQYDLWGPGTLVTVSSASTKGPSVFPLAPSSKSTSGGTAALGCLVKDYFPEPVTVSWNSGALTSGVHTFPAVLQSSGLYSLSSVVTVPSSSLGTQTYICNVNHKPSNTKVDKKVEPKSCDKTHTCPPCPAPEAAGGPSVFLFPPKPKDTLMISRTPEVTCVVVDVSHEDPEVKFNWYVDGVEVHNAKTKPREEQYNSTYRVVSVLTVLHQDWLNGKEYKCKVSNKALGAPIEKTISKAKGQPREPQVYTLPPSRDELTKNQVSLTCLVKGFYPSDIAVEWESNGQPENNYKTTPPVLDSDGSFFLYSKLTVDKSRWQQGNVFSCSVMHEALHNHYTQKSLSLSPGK
# light: ELVMTQSPATLSVSPGERATLSCRASEDIENYLAWYQQKPGQPPRLLIYRASTLSSGVPARFSGSGSGTEFTLTISSLQSEDFAVYYCQQGYRNSNVDNPFGGGTKVEIKRTVAAPSVFIFPPSDEQLKSGTASVVCLLNNFYPREAKVQWKVDNALQSGNSQESVTEQDSKDSTYSLSSTLTLSKADYEKHKVYACEVTHQGLSSPVTKSFNRGECGGGGSGGGGSGGGGSDIQMTQSPSSLSASVGDRVTITCQASESVDRNNRLAWFQQKPGKPPKLLIYTTSTLASGVPSRFSGSGSGTDFTLTISSLQPEDVATYYCAGYRGAHTDGDAFGGGTKVEIKGGGGSGGGGSGGGGSGGGGSEQQLVESGGGLVKPGGSLRLSCAASGFSFSRSSYMCWVRQAPGKGLEWIGCLSVGDGHTYYASWAKGRFTISKDSAKNSVYLQMNSLRAEDTAVYFCARAPSYSGDGGHGYDLWGPGTLVTVSS
# Legend:
# [1] = molecular target: T1, CD79b on Ramos cells and on endogenous …; assay: cell-based or functional assay
# [2] = molecular target: T1, CD79b on Ramos cells and on endogenous …; assay: cell-based or functional assay; remark: listed apart in the source
# [3] = molecular target: T1, CD79b on Ramos cells and on endogenous …; assay: cell-based or functional assay; remark: listed apart in the source
# [4] = molecular target: T1, CD79b on Ramos cells and on endogenous …; assay: cell-based or functional assay; remark: listed apart in the source
# [5] = molecular target: T2, Human CLEC5A His Tag protein …; assay: ELISA, plate coated with human CLEC5A
# Method: Protein antigen was aspirated, and wells were washed 3 times with 400 μL of wash buffer (0.05% Tween® 20 in PBS) using a plate washer. Anti-CLEC5A antibodies were prepared as the primary antibody at 5 μg/mL and serially diluted 3-fold through 11 points (diluted concentrations) with reagent buffer (PBS+0.05% BSA). 100 μL of primary antibody was added to appropriate wells and incubated for 1 hour at room temperature. Primary antibody was aspirated, and wells were washed 3 times with 400 μL of wash buffer (0.05% Tween® 20 in PBS) using a plate washer. […] Secondary antibody was aspirated, and wells were washed 3 times with 400 μL of wash buffer (0.05% Tween® 20 in PBS) using a plate washer. […] 100 μL of Fisher 1N Sulfuric Acid (Cat #: SA212-2) stop solution was added to each well and the plate was read in a plate reader at 450 nm. For analysis, OD450 of each antibody was plotted using GraphPad Prism software (Version 9.4.1; GraphPad Software Inc.).
binder,measurement,setting,value
B1,"IC50 (nM), Ramos cell killing by PBMCs (test 2), Donor 234",[1],0.00472 nM
same,"IC50 (nM), killing of endogenous B cells by PBMCs, Donor 234",[2],0.0178 nM
same,"IC50 (nM), Ramos cell killing by M0 macrophages, Donor 022",[3],0.002 nM
same,"IC50 (nM), Ramos cell killing by M2 macrophages, Donor 022",[4],0.002 nM
B2,"IC50 (nM), Ramos cell killing by PBMCs (test 2), Donor 234",[1],0.338 nM
B3,EC50,[5],330 pM
B4,EC50,[5],470 pM
B5,EC50,[5],120 pM
B6,EC50,[5],220 pM
B7,EC50,[5],440 pM
B8,"IC50 (nM), Ramos cell killing by M0 macrophages, Donor 159",[3],0.002 nM
same,"IC50 (nM), Ramos cell killing by M0 macrophages, Donor 161",[3],0.0006 nM
